# Assay results taken from article PMC9606263, “Polerovirus N-terminal readthrough domain structures reveal molecular strategies for mitigating virus transmission by aphids” (Nature Communications, 2022).
# B1: N-terminal portion of the potato leafroll virus readthrough domain (PLRV NRTD; residues 230-458), native (domain or fragment)
# chain: HERFIAYVGIPMLTIQARENDDQIILGSLGSQRMKYIEDENQNYTKFSSEYYSQSSMQAVPMYYFNVPKGQWSVDISCEGYQPTSSTSDPNRGRSDGMIAYSNADSDYWNVGEADGVKISKLRNDNTYRQGHPELEINSCHFREGQLLERDATISFHVEAPTDGRFFLVGPAIQKTAKYNYTISYGDWTDRDMELGLITVVLDEHLEGTGSANRVRRPPREGHTYMASP
# notes: Readthrough protein (RTP, CP-RTD fusion) of potato leafroll virus, N-terminal portion of the readthrough domain, residues 230-458 of the complete RTP fusion; 6xHis-NusA removed with HRV3C protease; also called WT PLRV ^NRTD; source: E. coli BL21(DE3), purified (nickel column, HiTrap Q, SEC); not shown: 6xHis, N-terminal, cleaved; NusA, N-terminal, cleaved
# Tests used:
# [1] = target: N-terminal portion of the readthrough domain of turnip yellows virus (TuYV NRTD; residues 224-459) (turnip yellows virus); assay: SEC-MALS; loaded at 4 mg/mL on Superdex 200 10/300 Increase; 20 mM HEPES pH 7.5, 150 mM KCl, 1 mM DTT; 0.5 ml/min
# [2] = target: the molecule itself; assay: as above
Molecule,stoichiometry N [1],stoichiometry N [2]
N-terminal portion of the readthrough domain of turnip yellows virus (TuYV NRTD; residues 224-459) (from UniProt P09516 224-459) (domain or fragment),2,–
B1,–,2
